Data as given in patent EP4799607A2.

Molecular target: human VEGF165 (human) (UniProt P15692)
Assay: population PK model estimate, Michaelis-Menten binding of free aflibercept to VEGF in plasma (in vivo, model-derived)

Chain of aflibercept (chain): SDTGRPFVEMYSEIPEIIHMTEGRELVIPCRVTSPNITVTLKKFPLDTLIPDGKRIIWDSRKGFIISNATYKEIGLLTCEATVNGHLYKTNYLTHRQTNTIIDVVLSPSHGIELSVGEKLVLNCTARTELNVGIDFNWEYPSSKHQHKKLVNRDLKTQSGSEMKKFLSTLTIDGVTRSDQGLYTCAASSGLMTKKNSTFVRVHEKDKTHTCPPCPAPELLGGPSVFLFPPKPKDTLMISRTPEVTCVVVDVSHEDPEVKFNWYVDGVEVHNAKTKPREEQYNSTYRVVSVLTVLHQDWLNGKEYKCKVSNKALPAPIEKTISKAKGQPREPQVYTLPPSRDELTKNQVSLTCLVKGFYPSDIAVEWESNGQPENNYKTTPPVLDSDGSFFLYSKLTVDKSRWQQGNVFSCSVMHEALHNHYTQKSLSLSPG
Chain of UniProt P15692 (P15692 other isoform, or with tags, fused parts or gaps limits assumed): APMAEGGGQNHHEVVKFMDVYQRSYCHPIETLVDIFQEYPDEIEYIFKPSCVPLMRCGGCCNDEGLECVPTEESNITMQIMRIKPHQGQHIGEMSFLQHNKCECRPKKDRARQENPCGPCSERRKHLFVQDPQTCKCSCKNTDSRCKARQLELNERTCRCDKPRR

KM (concentration of free aflibercept at half of maximum binding capacity with VEGF): 0.411 mg/L
VMK24 (maximum binding rate of free aflibercept to VEGF): 0.167 mg/day/L
Substance: aflibercept (Fc fusion)
